Measurements as given in patent US8859496B2, “Pharmaceutical composition using connective-tissue growth factor” (Postech Academy-Industry Foundation, priority 2010, dated 2014).
No end group written: not given here.

Experiments:
HUVECs = experiment: HUVEC proliferation assay ([3H]-thymidine); format: cell-based, human
Description: For proliferation assay, HUVECs were plate cultured in a gelatin-coated 24-well culture dish at 2×10^4 cells/well and allowed to adhere overnight. 4 hours after serum was depleted, the cells were treated with various mitogen (CTGF linker polypeptide, CTGF) for 48 hours. [^3H]-thymidine (1 μCi, Amersham International) was added to each well 6 hours before final culture. The inserted [^3H]-thymidine was extracted in 0.2 M NaOH and 0.1% SDS solution at 37° C. for 1 hour. Radioactivity was measured using liquid scintillation counter (Beckmann Instruments), which was repeated three times, and the result was indicated by mean±standard deviation per minute.
First, 20 ng/ml of VEGF-A was administered to HUVECs, the degree of cell proliferation, cell migration, or tube formation was confirmed by the <Experiment method 9>, and the results are shown in FIGS. 22 to 24. At this time, FPRL1 antagonist WRW4 was additionally added.

FPRL1 = biological target: T1, FPRL1 (Homo sapiens, UniProt P25090); experiment: Flow cytometry binding of biotinylated linker polypeptide to FPRL1/RBL, vector/RBL or FPR/RBL cells
T1 construct: expressed in transfected cells; host or cells: rat basophil leukemia RBL-2H3 cells, kept under G418
T1 sequence (P25090 1-351): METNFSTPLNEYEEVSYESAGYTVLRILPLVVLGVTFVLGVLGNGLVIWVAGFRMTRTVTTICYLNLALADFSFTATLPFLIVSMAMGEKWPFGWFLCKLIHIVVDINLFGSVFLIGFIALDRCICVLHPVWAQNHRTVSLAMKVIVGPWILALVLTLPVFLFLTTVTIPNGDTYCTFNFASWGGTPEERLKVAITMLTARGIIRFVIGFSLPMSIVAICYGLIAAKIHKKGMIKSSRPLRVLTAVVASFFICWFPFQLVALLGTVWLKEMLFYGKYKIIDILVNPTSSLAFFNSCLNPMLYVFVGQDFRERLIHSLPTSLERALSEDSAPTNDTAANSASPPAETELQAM
Description: To evaluate the degree of binding of linker polypeptide corresponding to the link region of human CTGF, linker polypeptide was labeled using a EZ-Link Micro Sulfo-NHS-LC-Biotinylation kit (Pierce Chemical Co., Rockford, Ill., USA) according to the manufacturer's instruction. The linker polypeptide was cultured at room temperature for 1 hour in PBS with 9 mM sulfo-NHS-LC-biotin (Pierce Chemical Co., Rockford, Ill., USA). During biotinylation, vector/RBL cells, FPR/RBL cells, FPRL1/RBL cells, or HUVECs were treated with trypsin, and collected, and then, treated with rabbit serum at room temperature for 30 minutes. After culturing the biotinylated linker polypeptide in the ice for 30 minutes, the cells were shortly washed with ice-cold PBS, cultured with antihuman fluoroscein-5-isothiocyanate (FITC)-conjugated streptavidin (Pierce Chemical Co.), and then, washed with ice-cold PBS, and fixed with 1% formaldehyde solution. And then, they were analyzed using FACS Caliber system (BD Biosciences, San Jose, Calif.) with CellQuest and WinMDI 2.9 software according to previously known method (He, R., Sang, H. & Ye, R. D. Serum amyloid A induces IL-8 secretion through a G protein-coupled receptor, FPRL1/LXA4R. Blood 101, 1572-1581, 2003). […]

FPRL1 in HUVECs = biological target: T2, FPRL1 in HUVECs (Homo sapiens, UniProt P25090); experiment: Flow cytometry binding of biotinylated linker polypeptide in HUVECs
T2 construct: endogenous in cells; host or cells: HUVECs
T2 sequence (P25090 1-351): T1 sequence (P25090 1-351)
Description: To evaluate the degree of binding of linker polypeptide corresponding to the link region of human CTGF, linker polypeptide was labeled using a EZ-Link Micro Sulfo-NHS-LC-Biotinylation kit (Pierce Chemical Co., Rockford, Ill., USA) according to the manufacturer's instruction. The linker polypeptide was cultured at room temperature for 1 hour in PBS with 9 mM sulfo-NHS-LC-biotin (Pierce Chemical Co., Rockford, Ill., USA). During biotinylation, vector/RBL cells, FPR/RBL cells, FPRL1/RBL cells, or HUVECs were treated with trypsin, and collected, and then, treated with rabbit serum at room temperature for 30 minutes. After culturing the biotinylated linker polypeptide in the ice for 30 minutes, the cells were shortly washed with ice-cold PBS, cultured with antihuman fluoroscein-5-isothiocyanate (FITC)-conjugated streptavidin (Pierce Chemical Co.), and then, washed with ice-cold PBS, and fixed with 1% formaldehyde solution. And then, they were analyzed using FACS Caliber system (BD Biosciences, San Jose, Calif.) with CellQuest and WinMDI 2.9 software according to previously known method (He, R., Sang, H. & Ye, R. D. Serum amyloid A induces IL-8 secretion through a G protein-coupled receptor, FPRL1/LXA4R. Blood 101, 1572-1581, 2003).
It was examined whether the CTGF linker polypeptide binds to FPRL1 in HUVECs as described in the <Experiment method 7>, and the results are shown in FIG. 13. […]

Row | Substance | effect of antagonist on HUVEC proliferation by VEGF-A (HUVECs; VEGF-A 20 ng/ml plus WRW4) | effect of antagonist on linker polypeptide binding (FPRL1; WRW4 10 uM, 30 minutes) | effect of antagonist on linker polypeptide binding in HUVECs (FPRL1 in HUVECs; WRW4 10 uM with 10 nM CTGF linker polypeptide) | proliferation of HUVECs (HUVECs; 48 hours, [3H]-thymidine) | binding of biotinylated linker polypeptide to cells (FPRL1; 10 nM, FPRL1/RBL, vector/RBL or FPR/RBL cells) | binding of linker polypeptide in HUVECs (flow cytometry shift) (FPRL1 in HUVECs; 10 nM, 30 minutes, compared to vehicle)
1 | WRWWWW (FPRL1 antagonist) [WRW4] | did not exhibit statistically significant inhibition of HUVECs proliferation by VEGF-A | the linker polypeptide binding is inhibited in FPR/RBL cells | the shift is not observed |  |  | 
2 | EWVCDEPKDQTVVGPALAAYRLEDTFGPDPTMIRANCLV (EWVCDEPKDQTVVGPALAAYRLEDTFGPDPTMIRANCLV-NH2; cysteine pairing not given here) [CTGF linker polypeptide] |  |  |  | induces proliferation of HUVECs in a concentration-dependent manner, the degree is not statistically significant | binds only to FPRL1/RBL cells | average value shifts right
